The source of these data is the supplement of paper PMC10567573.

B1: ETS2 (parent)
chain: TSGKRYVYRFVCDLQNLLGFTPEE
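Further: lentivirally expressed fusions sorted by FACS into six bins by GFP to DsRed ratio, PSI derived from sequencing read proportions per bin multiplied by bin number.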

This data set covers variants of B1. Nature of the data set: protein stability index of a GFP-peptide fusion (GPS, HEK-293T) (PSI 1-6); higher = more stable. The conditions noted are these: c terminus: a fixed tail appended.
In the case of TSGKRYVYRFVCDLQNLLGITPEE [F20I], the protein stability index was 1.61.

Turning to TSGKRYVYRFVCDLQNLLGATPEE [F20A], the protein stability index stood at 2.59.

For TSGKRYVYRFVCDLQNLLGYTPEE [F20Y], the protein stability index turned out to be 2.77.

As for TSGKRYVYRFVCDLQNLLGHTPEE [F20H], the protein stability index was 1.97.

TSGKRYVYRFVCDLQNLLGTTPEE [F20T]: the protein stability index stood at 1.88.

Take TSGKRYVYRFVCDLQNLLGVTPEE [F20V]: the protein stability index turned out to be 1.93.

Turning to TSGKRYVYRFVCDLQNLLGPTPEE [F20P], the protein stability index turned out to be 3.26.

For TSGKRYVYRFVCDLQNLLGLTPEE [F20L], the protein stability index is 2.17.

Turning to TSGKRYVYRFVCDLQNLLGWTPEE [F20W], the protein stability index came out at 3.05.

As for TSGKRYVYRFVCDLQNLLGQTPEE [F20Q], the protein stability index came out at 2.35.

Regarding TSGKRYVYRFVCDLQNLLGMTPEE [F20M], the protein stability index was determined as 1.62.

In the case of TSGKRYVYRFVCDLQNLLGDTPEE [F20D], the protein stability index came to 1.48.

For TSGKRYVYRFVCDLQNLLGRTPEE [F20R], the protein stability index is 1.87.

For the variant TSGKRYVYRFVCDLQNLLGKTPEE [F20K], the protein stability index stood at 1.77.

As for TSGKRYVYRFVCDLQNLLGNTPEE [F20N], the protein stability index was determined as 3.28.

For TSGKRYVYRFVCDLQNLLGETPEE [F20E], the protein stability index stood at 2.

Regarding TSGKRYVYRFVCDLQNLLGCTPEE [F20C], the protein stability index came to 1.93.

For the variant TSGKRYVYRFVCDLQMLLGFTPEE [N16M], the protein stability index came out at 1.53.

For the variant TSGKRYVYRFVCDLQCLLGFTPEE [N16C], the protein stability index amounted to 1.7.

In the case of TSGKRYVYRFVCDLQYLLGFTPEE [N16Y], the protein stability index stood at 1.75.

For TSGKRYVYRFVCDLQFLLGFTPEE [N16F], the protein stability index came to 2.16.

As for TSGKRYVYRFVCDLQPLLGFTPEE [N16P], the protein stability index was determined as 2.56.

TSGKRYVYRFVCDLQWLLGFTPEE [N16W]: the protein stability index worked out at 2.05.

TSGKRYVYRFVCDLQHLLGFTPEE [N16H]: the protein stability index was found to be 2.49.

For the variant TSGKRYVYRFVCDLQLLLGFTPEE [N16L], the protein stability index worked out at 1.52.

Turning to TSGKRYVYRFVCDLQELLGFTPEE [N16E], the protein stability index was found to be 1.74.

Regarding TSGKRYVYRFVCDLQALLGFTPEE [N16A], the protein stability index is 2.13.

Take TSGKRYVYRFVCDLQTLLGFTPEE [N16T]: the protein stability index worked out at 1.97.

Consider TSGKRYVYRFVCDLQVLLGFTPEE [N16V], for which the protein stability index came to 3.2.

On to TSGKRYVYRFVCDLQDLLGFTPEE [N16D], for which the protein stability index was determined as 2.17.

On to TSGKRYVYRFVCDLQSLLGFTPEE [N16S], for which the protein stability index turned out to be 2.46.

Regarding TSGKRYVYRFVCDLQQLLGFTPEE [N16Q], the protein stability index was 2.04.

Turning to TSGKRYVYRFVCDLQILLGFTPEE [N16I], the protein stability index is 2.03.

For the variant TSGKRYVYRFVCDLQGLLGFTPEE [N16G], the protein stability index is 2.38.

As for TSGKRYVYRFVCDLQKLLGFTPEE [N16K], the protein stability index came to 2.02.

Consider TSGKRYVYRFVCDLQNLLGFTGEE [P22G], for which the protein stability index amounted to 1.63.

As to TSGKRYVYRFVCDLQNLLGFTHEE [P22H], the protein stability index was 2.07.

With TSGKRYVYRFVCDLQNLLGFTCEE [P22C], the protein stability index was found to be 1.4.

Take TSGKRYVYRFVCDLQNLLGFTLEE [P22L]: the protein stability index came out at 2.85.

Regarding TSGKRYVYRFVCDLQNLLGFTQEE [P22Q], the protein stability index stood at 2.16.

Consider TSGKRYVYRFVCDLQNLLGFTYEE [P22Y], for which the protein stability index is 3.16.

Regarding TSGKRYVYRFVCDLQNLLGFTKEE [P22K], the protein stability index turned out to be 1.83.

Turning to TSGKRYVYRFVCDLQNLLGFTAEE [P22A], the protein stability index came out at 1.65.

On to TSGKRYVYRFVCDLQNLLGFTNEE [P22N], for which the protein stability index was 1.39.

As for TSGKRYVYRFVCDLQNLLGFTTEE [P22T], the protein stability index worked out at 2.16.

With TSGKRYVYRFVCDLQNLLGFTIEE [P22I], the protein stability index came to 2.24.

For TSGKRYVYRFVCDLQNLLGFTEEE [P22E], the protein stability index is 1.46.

As to TSGKRYVYRFVCDLQNLLGFTWEE [P22W], the protein stability index was 1.89.

Consider TSGKRYVYRFVCDLQNLLGFTSEE [P22S], for which the protein stability index worked out at 1.8.

With TSGKRYVYRFVCDLQNLLGFTVEE [P22V], the protein stability index amounted to 1.05.

As to TSGKRYVYRFVCDLQNLLGFTFEE [P22F], the protein stability index worked out at 1.89.

As for TSGKRYVYRFVCDLQNLLGFTMEE [P22M], the protein stability index stood at 2.35.

Take TSGKRYVYRFVCDLQNLLGFTREE [P22R]: the protein stability index stood at 3.16.

For the variant TSGKRYVYRFVCDLQNLQGFTPEE [L18Q], the protein stability index was determined as 2.88.

On to TSGKRYVYRFVCDLQNLRGFTPEE [L18R], for which the protein stability index turned out to be 2.09.

On to TSGKRYVYRFVCDLQNLCGFTPEE [L18C], for which the protein stability index was determined as 1.39.

For TSGKRYVYRFVCDLQNLWGFTPEE [L18W], the protein stability index came out at 2.1.

Turning to TSGKRYVYRFVCDLQNLSGFTPEE [L18S], the protein stability index was 1.87.

TSGKRYVYRFVCDLQNLAGFTPEE [L18A]: the protein stability index was found to be 1.99.

As for TSGKRYVYRFVCDLQNLNGFTPEE [L18N], the protein stability index was 2.29.

With TSGKRYVYRFVCDLQNLVGFTPEE [L18V], the protein stability index came out at 2.91.

TSGKRYVYRFVCDLQNLIGFTPEE [L18I]: the protein stability index turned out to be 1.2.

Take TSGKRYVYRFVCDLQNLEGFTPEE [L18E]: the protein stability index worked out at 2.04.

Regarding TSGKRYVYRFVCDLQNLPGFTPEE [L18P], the protein stability index amounted to 1.68.

Regarding TSGKRYVYRFVCDLQNLMGFTPEE [L18M], the protein stability index was determined as 2.07.

On to TSGKRYVYRFVCDLQNLYGFTPEE [L18Y], for which the protein stability index amounted to 1.74.

Take TSGKRYVYRFVCDLQNLFGFTPEE [L18F]: the protein stability index was found to be 1.84.

For the variant TSGKRYVYRFVCDLQNLHGFTPEE [L18H], the protein stability index was found to be 1.32.

Regarding TSGKRYVYRFVCDLQNLGGFTPEE [L18G], the protein stability index was found to be 1.92.

For TSGKRYVYRFVCDLQNLKGFTPEE [L18K], the protein stability index came out at 1.95.

On to TSGKRYVYRFVCDLQNLTGFTPEE [L18T], for which the protein stability index was found to be 1.91.

Turning to TSGKRYVYRFVCDLQNLLGFIPEE [T21I], the protein stability index turned out to be 1.76.

Consider TSGKRYVYRFVCDLQNLLGFDPEE [T21D], for which the protein stability index is 1.6.

On to TSGKRYVYRFVCDLQNLLGFRPEE [T21R], for which the protein stability index came out at 1.67.

On to TSGKRYVYRFVCDLQNLLGFMPEE [T21M], for which the protein stability index is 2.05.

On to TSGKRYVYRFVCDLQNLLGFQPEE [T21Q], for which the protein stability index came to 1.7.

Take TSGKRYVYRFVCDLQNLLGFEPEE [T21E]: the protein stability index amounted to 2.32.

TSGKRYVYRFVCDLQNLLGFWPEE [T21W]: the protein stability index was 2.15.

TSGKRYVYRFVCDLQNLLGFPPEE [T21P]: the protein stability index was 2.44.

In the case of TSGKRYVYRFVCDLQNLLGFFPEE [T21F], the protein stability index worked out at 2.02.

Turning to TSGKRYVYRFVCDLQNLLGFCPEE [T21C], the protein stability index turned out to be 1.32.

As for TSGKRYVYRFVCDLQNLLGFGPEE [T21G], the protein stability index was 1.95.

TSGKRYVYRFVCDLQNLLGFHPEE [T21H]: the protein stability index was 2.75.

For TSGKRYVYRFVCDLQNLLGFAPEE [T21A], the protein stability index is 2.11.

Consider TSGKRYVYRFVCDLQNLLGFLPEE [T21L], for which the protein stability index was determined as 2.1.

TSGKRYVYRFVCDLQNLLGFNPEE [T21N]: the protein stability index turned out to be 2.38.

As to TSGKRYVYRFVCDLQNLLGFKPEE [T21K], the protein stability index was found to be 2.25.

Turning to TSGKRYVYRFVCDLQNLLGFYPEE [T21Y], the protein stability index was determined as 1.77.

Turning to TSGKRYVYRFVCDLQNLLGFVPEE [T21V], the protein stability index came to 1.62.

Regarding TSGKRYVYRFVCDLQNLLGFSPEE [T21S], the protein stability index was determined as 2.13.

As to TSGKRYVYRFVCDLQNLLGFTPAE [E23A], the protein stability index was 2.68.

As for TSGKRYVYRFVCDLQNLLGFTPNE [E23N], the protein stability index is 2.43.

As to TSGKRYVYRFVCDLQNLLGFTPIE [E23I], the protein stability index is 2.43.

In the case of TSGKRYVYRFVCDLQNLLGFTPQE [E23Q], the protein stability index was determined as 2.63.
